Here are results for 2 molecules from US20120271036A1 (UNIVERSITY OF ROCHESTER, published 2012).

For orientation: Kd means the free concentration of one partner at which half of the binding sites on the other are occupied at equilibrium, for simple one-to-one binding. Higher therefore signals weaker binding.

The labels stand for the following.
B2: BC: EloB (1-118) / EloC (17-112) heterodimer (other)
chain 1: MGDVFLMIRRHKTTIFTDAKESSTVFELKRIVEGILKRPPDEQRLYKDDQLLDDGKTLGECGFTSQTARPQAPATVGLAFRADDTFEALCIEPFSSPPELPDVMKPQDSGSSANEQAVQENLYFQ
chain 2: MGYVKLISSDGHEFIVKREHALTSGTIKAMLSGPGQFAENETNEVNFREIPSHVLSKVCMYFTYKVRYTNSSTEIPEFPIAPEIALELLMAANFLDC
notes: also called EloBC; EloBC heterodimer

Series [1] has as its target T1, BCvif95-155: EloB (1-118) / EloC (17-112) / Vif (95-155) (human; HIV-1 HXB2, UniProt P69723 95-155).
T1 construct: range 95-155
Put plainly: ITC, 30 C. (Isothermal titration calorimetry measures the heat released or taken up as one component is titrated into another.)

Series [2] has as its target T2, EloB(1-104)/EloC(17-112)/Vif(102-173) (human; HIV-1 (group M, subtype B), UniProt Q15370 2-104; Q15369 18-112; P31820 102-173). Put plainly: ITC, 30 C.
Series [3] has as its target T3, EloB(1-118)/EloC(17-112)/Vif(95-173) (human; HIV-1 (group M, subtype B), UniProt Q15370 2-118; Q15369 18-112; P31820 95-173). The series can be described thus: ITC, 30 C.
In series [4] the target is T4, BCvif95-160: EloB (1-118) / EloC (17-112) / Vif (95-160) (human; HIV-1 HXB2, UniProt P69723 95-160).
T4 construct: range 95-160
The series can be described thus: ITC, 30 C.

Series [5] concerns the target T5, BCvif95-192: EloB (1-118) / EloC (17-112) / Vif (95-192) (human; HIV-1 HXB2, UniProt P69723 95-192).
Series [6] has as its target B2.
Series [7] has as its target T2, EloB(1-104)/EloC(17-112)/Vif(102-173).
Series [8] has as its target T3, EloB(1-118)/EloC(17-112)/Vif(95-173).
Series [9] addresses T4, BCvif95-160: EloB (1-118) / EloC ….
In series [10] the target is T6, BCvifVF: EloB (1-118) / EloC (17-112) / vif (95-192) (A123V, L124F) (human; HIV-1 HXB2, UniProt P69723 95-192).
The target of series [11] is T7, BCvifSS: EloB (1-118) / EloC (17-112) / vif (95-192) (A123S, L124S) (human; HIV-1 HXB2, UniProt P69723 95-192).
Series [12] has as its target T7, BCvifSS: EloB (1-118) / EloC (17-112) / …. The series can be described thus: ITC, 30 C; A123S/L124S mutant.
In series [13] the target is T6, BCvifVF: EloB (1-118) / EloC (17-112) / …. The series can be described thus: ITC, 30 C; A123V/L124F mutant.
Series [14] addresses T5, BCvif95-192: EloB (1-118) / EloC …. The series can be described thus: ITC, 30 C; Cul5(N) titrated into the complex.
In series [15] the target is B2. The series can be described thus: ITC, 30 C; untagged Cul5(N) titrated into EloBC.
Series [16] addresses T5, BCvif95-192: EloB (1-118) / EloC …. Put plainly: ITC, opposite injection order; BCvif95-192 titrated into Cul5(N).
Series [17] concerns the molecule itself. Put plainly: sedimentation velocity AUC; self-association.

B1: Cul5(N), human Cullin5 residues 2-384 (V341R, L345D) after removal of GST (other)
chain: GPMHMGGSTSNLLKNKGSLQFEDKWDFMRPIVLKLLRQESVTKQQWFDLFSDVHAVCLWDDKGPAKIHQALKEDILEFIKQAQARVLSHQDDTALLKAYIVEWRKFFTQCDILPKPFCQLEITLMGKQGSNKKSNVEDSIVRKLMLDTWNESIFSNIKNRLQDSAMKLVHAERLGEAFDSQLVIGVRESYVNLCSNPEDKLQIYRDNFEKAYLDSTERFYRTQAPSYLQQNGVQNYMKYADAKLKEEEKRALRYLETRRECNSVEALMECCVNALVTSFKETILAECQGMIKRNETEKLHLMFSLMDKVPNGIEPMLKDLEEHIISAGLADMVAAAETITTDSEKYREQLDTLFNRFSKLVKEAFQDDPRFLTARDKAYKAVVNDATIFK
notes: also called untagged Cul5(N)
Turning to B1, the Kd worked out at 213 nM in series [1]; 288 nM in series [2]; 337 nM in [3]; 285 nM in series [4]; 397 nM in series [12]; 847 nM in series [13]. Besides, the Kd worked out at 327 nM in series [14], 6.35 µM in series [15] and 420 nM in series [16]. Besides, the ΔH in [5] is -5210; in series [6], -9200; in [7], -4950; in series [8] it was -5630; in series [9], -5090; in series [10], -4550. In series [11], this molecule yielded a ΔH of -7380. Further, the ΔS in [5] was 12.6; in series [6], -6.39; in series [7] it was 13.6; in series [8], 11.1; in series [9], 13; in [10], 13.1. Also, the ΔS in series [11] worked out at 4.97. Further, the N in series [6] stood at 0.924; in series [7] it was 0.826; in series [8], 0.869.

Regarding B2, in series [17], the binding result was “no binding (tested: 0.19, 0.37, and 1.88 mg ml^-1)”.
